Legend:
[1] = target: CD3 (CD3/TCR complex) on CD4+ and CD8+ T cells of patients (human) (UniProt P07766); experiment: flow cytometry of CD4+ T cells, anti-human IgG; Example 3 Cohort 3, end of 0.5 mg infusion
[2] = target: CD3 (CD3/TCR complex) on CD4+ and CD8+ T cells of patients (human) (UniProt P07766); experiment: flow cytometry of CD4+ T cells, anti-human IgG; Example 4 Cohort C, end of 1.0 mg infusion
[3] = target: CD3 (CD3/TCR complex) on CD4+ and CD8+ T cells of patients (human) (UniProt P07766); experiment: flow cytometry of CD4+ T cells, anti-human IgG; Example 4 Cohort B, end of 0.75 mg infusion
[4] = target: CD3 (CD3/TCR complex) on CD4+ and CD8+ T cells of patients (human) (UniProt P07766); experiment: flow cytometry of CD4+ T cells, anti-human IgG; Example 3 Cohort 2 (0.5 mg x3), end of infusion
[5] = target: CD3 (CD3/TCR complex) on CD4+ and CD8+ T cells of patients (human) (UniProt P07766); experiment: flow cytometry of CD4+ T cells, free CD3 sites by biotinylated TRX4; Example 4 Cohort A, 0.5 mg
[6] = target: CD3 (CD3/TCR complex) on CD4+ and CD8+ T cells of patients (human) (UniProt P07766); experiment: flow cytometry of CD4+ T cells, free CD3 sites by biotinylated TRX4; Example 4 Cohort A*, 0.25 mg
[7] = target: CD3 (CD3/TCR complex) on CD4+ and CD8+ T cells of patients (human) (UniProt P07766); experiment: flow cytometry of CD4+ T cells, anti-human IgG; Example 4 Cohort B, 2 hours after 0.75 mg infusion
[8] = target: CD3 (CD3/TCR complex) on CD4+ and CD8+ T cells of patients (human) (UniProt P07766); experiment: flow cytometry of CD4+ T cells, free CD3 sites by biotinylated TRX4; Example 3 Cohort 2, first 0.5 mg dose
[9] = target: CD3 (CD3/TCR complex) on CD4+ and CD8+ T cells of patients (human) (UniProt P07766); experiment: flow cytometry of CD4+ T cells, free CD3 sites by biotinylated TRX4; Example 4 Cohort C, 2 hours after last infusion

Sequence of UniProt P07766 (P07766 23-207, chain 1 of 3): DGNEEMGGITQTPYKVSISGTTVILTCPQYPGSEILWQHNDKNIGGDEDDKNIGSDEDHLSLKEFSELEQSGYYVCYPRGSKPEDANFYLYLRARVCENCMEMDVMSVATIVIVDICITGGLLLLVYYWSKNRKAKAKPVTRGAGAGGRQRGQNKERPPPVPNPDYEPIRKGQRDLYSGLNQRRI
Sequence of UniProt P07766 (chain, as listed by the source, chain 2 of 3): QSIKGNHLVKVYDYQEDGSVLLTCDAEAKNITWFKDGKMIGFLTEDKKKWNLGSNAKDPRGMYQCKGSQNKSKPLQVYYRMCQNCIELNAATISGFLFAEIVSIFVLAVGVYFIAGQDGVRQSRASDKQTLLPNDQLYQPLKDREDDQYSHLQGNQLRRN
Sequence of UniProt P07766 (chain, as listed by the source, chain 3 of 3): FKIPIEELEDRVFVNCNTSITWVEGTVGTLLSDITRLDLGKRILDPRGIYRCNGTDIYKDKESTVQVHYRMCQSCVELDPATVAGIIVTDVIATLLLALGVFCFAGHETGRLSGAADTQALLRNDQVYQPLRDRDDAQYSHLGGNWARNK

cell-bound TRX4 (MESF of anti-human IgG) [1]: 800000 MESF units | cell-bound TRX4 (MESF of anti-human IgG) [2]: 750000 MESF units | cell-bound TRX4 (MESF of anti-human IgG) [3]: 480000 MESF units | cell-bound TRX4 (MESF of anti-human IgG) [4]: 600000 MESF units | percent saturation of CD3 [5]: 95% | percent saturation of CD3 [6]: 95% | cell-bound TRX4 (MESF of anti-human IgG) [7]: 550000 MESF units | percent saturation of CD3 [8]: 90% | percent saturation of CD3 [9]: 50%
Substance: TRX4 antibody

— US20090258001A1
